From publication PMC4728340, “Structure of the polyisoprenyl-phosphate glycosyltransferase GtrB and insights into the mechanism of catalysis” (Nature Communications, 2016) come the findings set out here.

This series deals with the molecule itself. The experiment in a line: crystal structure; purified protein in n-decyl-beta-D-maltopyranoside (DM); sitting drop vapour diffusion at 22 °C, 16-18% PEG600, 0.12 M Tris/HCl pH 9.0, 0.1 M NaCl, 1 mM TCEP; crystals soaked with 5 mM MnCl2 and 25 mM UDP-glucose; space group C2, one tetramer in the asymmetric unit.

B1: GtrB from Synechocystis sp. PCC6803 (enzyme, Synechocystis sp. PCC 6803, UniProt Q55487 1-318, looked up)
chain: MTIELSIVIPMYNEEDNLEHLFARLLEVLTPLKITYEIICVNDGSKDKTLKQLIDCYQSNRQIKIVNLSRNFGKEIALSAGIDYAQGNAVIPIDADLQDPPELIHELVDKWREGYDIVYATRRSRQGETWVKQFTAKMFYKVIGRMTEIKIPPNTGDFRLMDRKVVNAIKQLPERTRFMKGLFAWVGYRQTFVLFDREPRFQGQTKWNYWKLWNFALDGIFSFSLLPLKVWTYLGSIISLLSLAYASFLILKTITLGVDVPGYASLMVAILFLGGVQLISLGVIGEYLGRVYEEVKARPLYLVSDLWGLEYLPLEKLN
notes: GtrB, polyisoprenyl-phosphate glycosyltransferase, Synechocystis sp; PCC 6803, UniProt Q55487; open reading frame amplified from genomic DNA; a TEV protease cleavage site stands between the tag and the protein; Vector pMCSG7; A selenomethionine-substituted form was used for phasing only; In the deposited coordinates each protomer is divided into two chains; also called GtrBSyn; WT
B1: the “stoichiometry N” value was determined as 4.

B2: GtrB from Synechocystis sp. PCC6803, point mutant F215A (enzyme, Synechocystis sp. PCC 6803, UniProt Q55487 1-318, looked up)
chain: MTIELSIVIPMYNEEDNLEHLFARLLEVLTPLKITYEIICVNDGSKDKTLKQLIDCYQSNRQIKIVNLSRNFGKEIALSAGIDYAQGNAVIPIDADLQDPPELIHELVDKWREGYDIVYATRRSRQGETWVKQFTAKMFYKVIGRMTEIKIPPNTGDFRLMDRKVVNAIKQLPERTRFMKGLFAWVGYRQTFVLFDREPRFQGQTKWNYWKLWNAALDGIFSFSLLPLKVWTYLGSIISLLSLAYASFLILKTITLGVDVPGYASLMVAILFLGGVQLISLGVIGEYLGRVYEEVKARPLYLVSDLWGLEYLPLEKLN
notes: GtrB, Synechocystis sp; PCC 6803, UniProt Q55487, same construct as m1 with the point mutation F215A (QuikChange); also called GtrB (F215A); source: E. coli, purified and crystallized in the same way as the wild type
B2: the binding result is given as “binds”.

For orientation: stoichiometry N means a count of units in the complex or per binding partner.
